Source: patent US12329823B2 (The Scripps Research Institute, priority 2021, dated 2025)
Where two headings read alike, the source gives them in different places.

Assays:
cynomolgous monkey GLP1R = cynomolgous monkey GLP1R (Macaca fascicularis, UniProt F8V479); test: In vitro potency, cynomolgous monkey GLP1R activation (receptor-mediated cAMP synthesis); format: cell-based; conditions: Table 12; read-out: In Vitro Potency GLP1R EC50, Cyno
Procedure: (§1) GLP-1R-CRE or HEK293-GIPR-CRE cells were seeded in 384-well plates at a density of 5000 cells per well and cultured for 18 h in DMEM with 10% FBS at 37° C. and 5% CO2. Cells were treated with peptides in a dose dependent manner for 24 h, and receptor activation was reported by luminescence intensities, using One-Glo (Promega, WI) luciferase reagent following manufacturer's instruction. The EC50 of each peptide was determined using GraphPad Prism 6 software (GraphPad, San Diego, CA). Results are depicted in FIGS. 6A-6B, FIGS. 7A-7B, FIGS. 8A-8B, FIGS. 9A-9B, and Tables 7-12. Measurements of peptide conjugate potency were expressed as half maximal effective concentration (EC50) values.

in vivo [1] = conditions: cynomolgus monkey
mouse GIPR = molecular target: T1, mouse GIPR (Mus musculus, UniProt Q0P543); test: In vitro potency, mouse GIPR activation (receptor-mediated cAMP synthesis); format: cell-based; conditions: Table 12
T1 sequence (Q0P543 19-460): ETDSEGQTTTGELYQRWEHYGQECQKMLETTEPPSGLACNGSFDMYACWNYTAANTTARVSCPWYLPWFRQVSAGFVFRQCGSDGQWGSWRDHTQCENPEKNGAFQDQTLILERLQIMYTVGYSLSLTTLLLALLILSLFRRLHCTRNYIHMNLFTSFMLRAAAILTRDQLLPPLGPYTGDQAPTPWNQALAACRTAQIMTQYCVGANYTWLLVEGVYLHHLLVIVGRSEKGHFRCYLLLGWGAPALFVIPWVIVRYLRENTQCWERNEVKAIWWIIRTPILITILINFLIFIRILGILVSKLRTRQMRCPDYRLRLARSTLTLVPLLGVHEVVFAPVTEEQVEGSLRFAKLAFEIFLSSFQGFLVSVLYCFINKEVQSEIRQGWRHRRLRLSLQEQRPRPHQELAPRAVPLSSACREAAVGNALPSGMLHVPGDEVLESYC

human GIPR = molecular target: T2, human GIPR (Homo sapiens, UniProt P48546); test: In vitro receptor activation reporter assay (CRE-Luc, HEK293-GIPR-CRE cells; receptor-mediated cAMP synthesis); format: cell-based
T2 construct: expressed in transfected cells; host or cells: HEK293 (CRE-HEK293, HEK293-GIPR-CRE)
T2 sequence (P48546 22-466): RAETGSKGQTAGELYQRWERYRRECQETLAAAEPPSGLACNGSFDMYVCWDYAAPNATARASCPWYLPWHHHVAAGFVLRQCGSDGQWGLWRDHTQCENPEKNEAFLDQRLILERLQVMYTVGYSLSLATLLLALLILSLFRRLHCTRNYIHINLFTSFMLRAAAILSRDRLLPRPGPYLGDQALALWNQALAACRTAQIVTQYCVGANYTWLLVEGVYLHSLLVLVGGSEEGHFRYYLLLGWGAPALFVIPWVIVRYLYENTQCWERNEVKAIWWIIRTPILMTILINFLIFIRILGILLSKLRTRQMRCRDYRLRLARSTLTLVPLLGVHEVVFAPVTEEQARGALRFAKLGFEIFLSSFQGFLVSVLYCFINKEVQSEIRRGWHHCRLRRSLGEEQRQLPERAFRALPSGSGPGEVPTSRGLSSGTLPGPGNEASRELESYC
Procedure: HEK293 cells were infected with lentivirus encoding firefly luciferase gene under the control of cAMP responsive element (CRE) promoter (Qiagen, The Netherlands) and then were selected using 1 μg mL^−1 puromycin (Life Technologies, Carlsbad) for 1 week. The surviving cells (referred to as CRE-HEK293) were expanded and then transfected with a G418 selective mammalian expression plasmid encoding human GLP-1R or GIPR. In brief, GLP-1R or GIPR plasmid was transfected into CRE-HEK293 cells using Lipofectamine 2000 and selected with 400 μg mL^−1 Geneticin (Life Technologies, Carlsbad, CA). Single colony stable cell line overexpressing CRE-luciferase and GLP-1R or GIPR (HEK293-GLP-1R-CRE or HEK293-GIPR-CRE) was then established for in vitro activity assay.

in vivo [2] = conditions: dog
dog GLP1R = molecular target: T3, dog GLP1R (Canis lupus familiaris, UniProt A0A8I3NUR9); test: In vitro potency, dog GLP1R activation (receptor-mediated cAMP synthesis); format: cell-based; conditions: Table 12
T3 sequence (A0A8I3NUR9 1-464): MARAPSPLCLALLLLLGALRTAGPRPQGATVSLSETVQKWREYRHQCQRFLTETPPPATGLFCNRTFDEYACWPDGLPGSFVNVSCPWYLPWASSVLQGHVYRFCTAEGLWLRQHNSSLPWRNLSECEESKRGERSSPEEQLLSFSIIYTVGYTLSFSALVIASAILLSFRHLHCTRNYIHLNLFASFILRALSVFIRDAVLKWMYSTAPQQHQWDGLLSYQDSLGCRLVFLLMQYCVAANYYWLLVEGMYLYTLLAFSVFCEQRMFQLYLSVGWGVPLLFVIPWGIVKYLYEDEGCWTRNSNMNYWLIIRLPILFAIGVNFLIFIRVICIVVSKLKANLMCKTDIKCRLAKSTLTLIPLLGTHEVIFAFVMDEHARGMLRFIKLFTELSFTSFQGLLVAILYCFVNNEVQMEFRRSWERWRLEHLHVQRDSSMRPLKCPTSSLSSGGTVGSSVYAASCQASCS
Procedure: as §1

mouse GLP1R = molecular target: T4, mouse GLP1R (Mus musculus, UniProt O35659); test: In vitro potency, mouse GLP1R activation (receptor-mediated cAMP synthesis); format: cell-based; conditions: Table 12
T4 sequence (O35659 22-463): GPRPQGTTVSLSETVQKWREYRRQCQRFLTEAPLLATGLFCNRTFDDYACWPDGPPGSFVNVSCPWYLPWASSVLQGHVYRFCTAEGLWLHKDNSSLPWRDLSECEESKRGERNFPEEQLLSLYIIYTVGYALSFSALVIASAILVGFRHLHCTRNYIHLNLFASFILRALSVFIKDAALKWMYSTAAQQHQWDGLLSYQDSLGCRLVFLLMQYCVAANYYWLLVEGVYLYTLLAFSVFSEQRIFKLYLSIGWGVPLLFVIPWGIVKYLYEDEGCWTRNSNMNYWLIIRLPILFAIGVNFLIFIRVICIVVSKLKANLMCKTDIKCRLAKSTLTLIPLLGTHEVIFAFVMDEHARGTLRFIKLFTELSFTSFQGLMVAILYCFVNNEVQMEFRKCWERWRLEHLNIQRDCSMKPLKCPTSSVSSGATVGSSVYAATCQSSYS
Procedure: as §1

[3] = In Vitro Potency GIPR EC50, 10% FBS, Table 11, human, 10% FBS
[4] = Table 11, human, No Serum, read-out: In Vitro Potency GIPR EC50, No Serum

cynomolgous monkey GLP1R, sequence (F8V479 24-463): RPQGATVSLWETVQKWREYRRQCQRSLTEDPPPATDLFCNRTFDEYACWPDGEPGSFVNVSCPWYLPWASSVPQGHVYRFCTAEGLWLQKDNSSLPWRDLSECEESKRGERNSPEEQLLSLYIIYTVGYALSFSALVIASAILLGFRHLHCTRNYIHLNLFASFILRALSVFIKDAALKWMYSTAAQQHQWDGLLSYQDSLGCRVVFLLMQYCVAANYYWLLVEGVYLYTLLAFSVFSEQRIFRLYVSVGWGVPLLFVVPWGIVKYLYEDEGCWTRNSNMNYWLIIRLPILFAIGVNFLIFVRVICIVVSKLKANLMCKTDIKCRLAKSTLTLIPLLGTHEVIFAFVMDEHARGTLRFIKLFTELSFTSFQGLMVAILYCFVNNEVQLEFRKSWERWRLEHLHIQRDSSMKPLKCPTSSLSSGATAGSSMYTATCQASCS

SMILES	EC50 (cynomolgous monkey GLP1R) [pM]	T last (in vivo [1]; iv) [h]	Vd (in vivo [1]; iv) [L/kg]	clearance (in vivo [1]; iv) [mL/h/kg]	half-life (in vivo [1]; iv) [h]	AUC(0-t) (in vivo [1]; sc) [ng·h/mL]	Cmax (in vivo [1]; sc) [ng/mL]	T last (in vivo [1]; sc) [h]	Tmax (in vivo [1]; sc) [h]	bioavailability (in vivo [1]; sc) [%]	half-life (in vivo [1]; sc) [h]	EC50 (mouse GIPR) [pM]	EC50 (human GIPR; [3]) [pM]	EC50 (human GIPR; [4]) [pM]	AUC(0-t) (in vivo [2]; iv) [ng·h/mL]	T last (in vivo [2]; iv) [h]	Vd (in vivo [2]; iv) [L/kg]	clearance (in vivo [2]; iv) [mL/h/kg]	half-life (in vivo [2]; iv) [h]	EC50 (dog GLP1R) [pM]	other results
CC[C@H](C)[C@H](NC(=O)[C@H](CC(C)C)NC(=O)[C@H](Cc1c[nH]c2ccccc12)NC(=O)[C@@H]1CSCC(=O)NCCN(C(=O)CCC(=O)NCCOCCOCCC(=O)NCCOCCOCCC(=O)NCCCC[C@H](NC(=O)CCCCCCCCCCCCCCCCCCC(=O)O)C(=O)O)CCNC(=O)CSC[C@H](NC(=O)[C@H](CCCCN)NC(=O)[C@H](CC(=O)O)NC(=O)[C@H](CC(C)C)NC(=O)[C@H](Cc2ccc(O)cc2)NC(=O)[C@@H](NC(=O)[C@H](CO)NC(=O)[C@H](Cc2ccc(O)cc2)NC(=O)[C@H](CC(=O)O)NC(=O)[C@H](CO)NC(=O)[C@@H](NC(=O)[C@H](Cc2ccccc2)NC(=O)[C@@H](NC(=O)CNC(=O)[C@H](CCC(=O)O)NC(=O)C(C)(C)NC(=O)[C@@H](N)Cc2ccc(O)cc2)[C@@H](C)O)[C@@H](C)O)[C@@H](C)CC)C(=O)N[C@@H](C)C(=O)N[C@@H](C)C(=O)NC(C)(C)C(=O)N[C@@H](CCC(=O)O)C(=O)N[C@@H](Cc2ccccc2)C(=O)N[C@@H](C(C)C)C(=O)N1)C(=O)N[C@@H](C)C(=O)NCC(=O)NCC(=O)N1CCC[C@H]1C(=O)N[C@@H](CO)C(=O)N[C@@H](CO)C(=O)NCC(=O)N[C@@H](C)C(=O)N1CCC[C@H]1C(=O)N1CCC[C@H]1C(=O)N1CCC[C@H]1C(=O)N[C@@H](CO)C(N)=O [mCMV268]	220	504	0.0612	0.84	58.8	438000	3930	504	14.7	73.7	60.5	260	90 ± 20	10 ± 10	59200	168	0.0957	1.09	63.9	1480	EC50 (human GIPR; unnumbered table, average of runs, read-out: EC50 GIPR average): 40 pM; EC50 (human GIPR; unnumbered table, run 02/19, read-out: EC50 GIPR 02/19): 50 pM; EC50 (human GIPR; unnumbered table, run 03/25, read-out: EC50 GIPR 03/25): 40 pM; EC50 (human GIPR; unnumbered table, run 03/26, read-out: EC50 GIPR 03/26): 30 pM; Cmax (in vivo [2]; iv): 8500 ng/mL; Tmax (in vivo [2]; iv): 0.693 h; AUC(0-t) (in vivo [2]; po): 1700 ng·h/mL; Cl (in vivo [2]; po): 1300 mL/h/kg; Cmax (in vivo [2]; po): 31.4 ng/mL; T last (in vivo [2]; po): 144 h; Tmax (in vivo [2]; po): 1 h; bioavailability (in vivo [2]; po): 0.27%, 0.27%,; half-life (in vivo [2]; po): 77.8 h; EC50 (mouse GLP1R): 260 pM
CC[C@H](C)[C@H](NC(=O)[C@H](CC(C)C)NC(=O)[C@H](Cc1c[nH]c2ccccc12)NC(=O)[C@@H]1CSCC(=O)NCCN(C(=O)CCC(=O)NCCOCCOCCC(=O)NCCOCCOCCC(=O)NCCCC[C@H](NC(=O)CCCCCCCCCCCCCCCCC(=O)O)C(=O)O)CCNC(=O)CSC[C@H](NC(=O)[C@H](CCCCN)NC(=O)[C@H](CC(=O)O)NC(=O)[C@H](CC(C)C)NC(=O)[C@H](Cc2ccc(O)cc2)NC(=O)[C@@H](NC(=O)[C@H](CO)NC(=O)[C@H](Cc2ccc(O)cc2)NC(=O)[C@H](CC(=O)O)NC(=O)[C@H](CO)NC(=O)[C@@H](NC(=O)[C@H](Cc2ccccc2)NC(=O)[C@@H](NC(=O)CNC(=O)[C@H](CCC(=O)O)NC(=O)C(C)(C)NC(=O)[C@@H](N)Cc2ccc(O)cc2)[C@@H](C)O)[C@@H](C)O)[C@@H](C)CC)C(=O)N[C@@H](C)C(=O)N[C@@H](C)C(=O)NC(C)(C)C(=O)N[C@@H](CCC(=O)O)C(=O)N[C@@H](Cc2ccccc2)C(=O)N[C@@H](C(C)C)C(=O)N1)C(=O)N[C@@H](C)C(=O)NCC(=O)NCC(=O)N1CCC[C@H]1C(=O)N[C@@H](CO)C(=O)N[C@@H](CO)C(=O)NCC(=O)N[C@@H](C)C(=O)N1CCC[C@H]1C(=O)N1CCC[C@H]1C(=O)N1CCC[C@H]1C(=O)N[C@@H](CO)C(N)=O [mCMZ371, YAibEGT-FTSDY-SIYLD-KXAAAib-EFVXW-LIAGG-PSSGA-PPPS-NH2 (where each X is C) (SEQ ID NO: 61)]	110	240	0.0538	0.756	60.2	156000	1740	240	24	58.5	49.3	270	40 ± 10	10	25600	240	0.11	1.19	71.9	1340	t1/2 in cynomolgus monkeys (in words) (in vivo [1]): long t1/2; AUC(0-t) (in vivo [1]; iv): 267000 ng·h/mL; t1/2 in dogs (in words) (in vivo [2]): long t1/2; AUC(0-t) (in vivo [2]; sc): 17600 ng·h/mL; Cmax (in vivo [2]; sc): 150 ng/mL; T last (in vivo [2]; sc): 240 h; Tmax (in vivo [2]; sc): 24 h; half-life (in vivo [2]; sc): 62.7 h; bioavailability (in vivo [2]; sc, Bioavailability): 68.7%; EC50 (mouse GLP1R): 90 pM
